Reference: article PMC3501574

Biological target: Biotinylated IL-2Rβ (human) (UniProt P14784)
Assay: SPR

Kd [nM]	Substance
438	IL-15 (1–114) (ligand)
3	IL-15—IL-15Rα complex (IL-15 co-expressed with IL-15Rα (1–64))
